From the nanobody polyreactivity screen of Harvey et al. (2022)

Assay: yeast display, Sf9 membrane polyspecificity reagent, FACS + sequencing; frameworks hold sequencing errors
In short: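 Galactose-induced (36–48 hours) yeast carrying a synthetic nanobody display library were exposed to 10% biotinylated, detergent-solubilized Sf9 membrane reagent at 4 °C for 1 hour. FACS followed streptavidin microbead enrichment, using low and high (top ~1%) gates for expression (anti-HA) and reagent binding (streptavidin). Colony PCR, MiSeq 2 × 250 sequencing and CDR-length filtering followed. Labels for polyreactivity reflect the gate of origin.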

Sequence	polyreactivity (PSR sort gate)
QVQLVDSGGGLVQAGGSLRLSCAASGLTILPNAMGWSRQAPGNDRELVAAISWGDGNTYYADSVKGRFTISRDNAKNTVYLQMNSLKPEDTAVYYCAADVIKSRTYDYWGQGTQVTVSS	low polyreactivity
QVQLVESGGGLVQAGGSLRLSCAASGSIFAVYAMVWYRQAPGKERELVAAISWSVGSTYYADSVKGRFTISRDNAKNTVYLQMNRLKPEDTAVYYCAADLAYYLDYVEYFTEIELEGYWGQGTQVTVSS	low polyreactivity
QVQLVESGGGLVQAGGSLRLSCAASGSILRLYAMGWYRQAPGNERDLVAAITYRGGRTDYADSVKGRFTISRDTAKNTVYLQLNSLKPEDTAVFYCAAGYLPSPRYSTSYLYYYWGQGTQVTVSS	high polyreactivity
QVQLVESGGGLVQAGGSLRLSCAASGLTFFRNAMGWYRQAPGKEREFVAGITSTDGSTYYADSVKGRFTISRDNAKNTVYLQMNSLKPEDTAVYYCAAAYRVRGRTYDAWGQGTQVTVSS	high polyreactivity
QVQLVESGGGLVQAGGSLRLSCAASGRTFYRYAMGWYRQAPGKERELVAAITGGGRTYYADSVKGRFTISRDNAKNTVYLQMNSLKPEDTAVYDCAAVVLRRPAYDYWGQGTQVTVSS	low polyreactivity
QVQLVESGGGLVQAGGSLRLSCAASGRTFPWYAMGWYRQAPGKERELVAAITISGGRTYYADSVKGRFTISRDNAKNTVYLQMNSLKPEDTAVYYCAAKTSFRYFNYAKPSYGYDYWGQGTQVTVSS	high polyreactivity
QVQLVESGGGLVQAGGSLRLSCAASGSIFATHAMGWYRQAPGQDRELVAAISWRTGSTVYADSVKGRFTISRDNAKNTDYLQMNSLKPEDTAVYYCAATRRGDNYRYDYWGQGTQVTVSS	high polyreactivity
QVQLGESGGGLVQAGGSLRLSCAASGLTLYLYTMGWYREAPGKEMELVASIDSGTSTKYADSVKGRFTISRDNAKNTVYLQMNSLKPEDTAVYYCAAGVWVTRYFRYYYWGQGTLVTVSS	low polyreactivity
QGQLVESAGGLVQAGGSLRLSCAAYGRIFGINAMGWYRQAPGKERELVAASTGGGSTYADSVKGRVTISRDNAKNTVYLHMNSLKPEATAVYYCAARKIWSSIAYYYWGQGTQVTVSS	low polyreactivity
QVQLVESGGGLLQAGGSLRLSCAASGRIFSFNTMGWYRQAPGKERELVAAISRGGSTYYADSVKGRFTNSRDNAKNTVYLQMNSMKPEDTAVYYCNALLPPGSRKYNYWGQGSQVTVSS	high polyreactivity
QVQLVESGGGLVHAGGSLRLSCAASGRITTYYTMGRYRHAPGKERELVAAISWSGTSTYYADSVKGRFTISRDNAKNTVYLQMNSLKPEATAVYYCNAGWRYPLDSVTDDYWGQGTQVTVSS	high polyreactivity
QVQLVEAGGGLVQAGGSLRLSCAASGRTFLRYTMGWYRQAPGKEREWVASITRGGSTYYADSVKGRFTISRDNAKNTVYLQMNSLKPEDTAVYYCAAGKALLSRYYYWGQGTQVTVSS	high polyreactivity
QVQLVESGGGLVQAGASLRLSCAASGSIFSGYTMGWYRQAPGKERELVAGISYRGGSTYYADSVKGRFTISRDNAKNTVYLQMNSLKPEDTAVYYCAALYYRRGSLNYEYWGQGTQVTVSS	high polyreactivity
QVQLVESGGGLVQAGGSLRLSCAASGSTFAIYAMGWYRQAPGKERELVAAITRGSTSYADSVKGRFTISRDNAKNTVYLQMNSLKPEDTAVYYCAADSSRYGVIRDFDYWGQGTQVTVSS	high polyreactivity
QVQLVESGGGLVQAGGSHRLSCAASGGTFSNNAMGWYRQAPGKERELVAAISNSGGRTYYADSVKGRFTISRDNAKNTVYLQMNSLKPEDTAVYYCNARYRLMDYWGQGTQVTVSL	high polyreactivity
QVQLVESGGGLVQAGGRLRLSCAASGSSFLGYVMGWSRQAPGKERELVAAITRSGGRTYYADSVKGRFTISRDNAKNTVYLQMTSLNPEDTAVYYCAALRGPSFHGYGYWGQGSQVTVSS	high polyreactivity
QDQLVESGGGLVQAGGSLRLSCAASGSIFWLNAMGWYRQAPGKERELVAAITTVDSTYYADSVKGRFTISRDNAKNTVYLQMNSLKPEDTAVYYCAASGRQSRYDYWGQGTQVTVSS	low polyreactivity
QVQLVESGGGLVQAGGSLRISCAASGFISYYYAMGWYRQAPGKERELVAAITKSGGSTYYADSVKGRFTISRDNAKNTVYLQMNSLKPDDTAVYYCAADRSTRNSTSRLYGYWGQGTQVTVSS	low polyreactivity
QDQLVESGGGLVQAGGSLRLSCAASASTFPYNPMGRYRQAPRKERELVAAITATDDSTYYADSVKGRFTISRDNAKNTVYLQMNSLKPEDTAVYYCAADFGGYVFYFGYDYWGQGTQVTVSS	low polyreactivity
QDQLVESGGGLVQAGGSLRLSCAASGRTLGKNAMGWYRQAPGTERELVAAISSSGGSTYYADSVKGRFTISRDNAKNTVYLQMNSLKPEDTAVYYCAAKYFRKYSQIGPDMYYWGQGTQVTVSS	high polyreactivity
QVQLVESGGGLVQAGGSLRLSCAASGFTLLIYAKGWYRQAPGKERELVAAITWRGSGTYYADSVKGRFTISRDIAKNSVYLQMNSLKPEDTAVYYCAARTARRTYDYWGQGTQVTVSS	low polyreactivity
QVQLVESGGGLVQAGGSLRLSCAASGRTLWSYTMGWYRQAPGKESELVARITIGGSTNYADSVKGRFTISRDNAKNTVYLQMNSLKPEDTAVYYCNARASYSYGSYLSKSYGYDYWGQGTQVTVSS	high polyreactivity

Sequence	polyreactivity (PSR sort gate)
QFQLVESGGGLVQAGGSLRLSCAASGSTFNYNAMGWYRQAPGIERELVAAISSSAGSTYYADSVKGRFTISRDNAKNTVYLQMNILKPEDTAVYYCANGGSSRVRTEGDYWGQGTQVTVSS	low polyreactivity
QVQLVESGGGLVQAGGSLRLSCAASGRIFDYYDMGWYRQAPVKERELVAAITSSGTSTYYADSVKGRFTISRDNAKNTVYLQMNSLKPEDTAVYYCNARSIRPWGENGFWGQGTQVTVSS	high polyreactivity
QVQLVESGGGLVQAGGSLRLSCAASGLIIPVYVMGWYRQAPGKERELVADITTVGSTYADSVKGRFTISRDNAKNTVYLQMNSLQPEDTAVYYCAADPPAPQYWWDHGNYWGQGTQVTVSS	low polyreactivity
QVQLVESGGGLVQAGGSLRLSCAASGSIFSYYAMGWYRQAPGKERELVAAITWSGTRTYYADSVKGRFTISRDNAKNTVYLQMNSLKPEDTAVSYCAADSSIRDAYWGQGTQVTVSS	low polyreactivity
QVQLVESGGGLVQAGGSLRLSCAASGNTFLIYAMGWYRQAPGKERELVAGITSSGSTYYADSVKGRFTISRDNAKNTVYLQMNSLKPEDTAVFYCAAEYIFYLYYDTAELYDYWGQGTQVTVSS	low polyreactivity
QVQLVESGGGLVQAGGSLRLSCAASGRIFWVNAMGWYRQAPGKEREFVAAISWSGGSTYADSVKGRFTISRDNAKNTVYLQMNSLKPEDTAVYYCAADRYNGRYGYWGQGTQVTVSS	high polyreactivity
QVQLEESGGGLVQAGGSLRLSCAASGSTFTVNGMGWYRQAPGKERELVAAIDGGDGSTYYADSVKGRFTISRDNAKNTVYLQMNSLKPEDTAVYYCAADTPCFTQYGYWGQGTQVTVSS	low polyreactivity
QVQLVESGGGLVQAGGSLRISCAASGSTIAGYTMGLYRQAPGKEMELVAAISRRGSRTYYADSVKGRFTISRDNAKNTVYLQMNSLKPEDTAVYYCNARNRVYYTLSGYGYWGQGTQVTVSS	high polyreactivity
QVQLEESGGGLVQAGGSLRLSCAASGSTFRDNALGWYRQAPGKETELVAGITRGGITNYADSVKGRFTISRDNAKNTVYLQMNSLIPEDTAVYYCAAEVTGTYYDYDYWGQGTQVTVSS	low polyreactivity
QVQLVESFGGLVQAGGSLRLICAGSGLTCYVYAMGWSRPAPGKERELVAAISQRGGSTYYADSVKGRFTISRDKAKNTVYLQMNSLKPEDTAVYYCAKYTVQYAFSHYDYWGQGTQVTVSS	high polyreactivity
QVQLVESGGGLVQAGGSLRLSCAASGFTFNYYAMGWYRQAPGKEREFVAAISYGGGDTYYADSVKGRFTISRDNAKNTVYLQMNSLKPEDTAVYYCNARFRKRAYRYDYWGQGTLVTVSS	high polyreactivity
QVQLVESGGGLVQAGGSLRLSCAASGIIFVRNAMGWYRQAPGKERELVAAITWRGSTYYADSVKGRFTISRDNAKNTVYLQMNSLKPEDTAVYYCAAQWLYLEYDYWGQGTQVTVSS	high polyreactivity
QVQLVESGGGLVQAGGSLRLSCAASGSTFSYYAMGWYRQAPWKERELVAASTAGGGSTYYADSVKGRFTISRDNAKNTVYLHMNSLKPEDTAVYYCNADQIFGPALNLWKLDYWGQGTQVTVSS	low polyreactivity
QVQLVESGGGLVQAGGSHRLSCAASGSIFYFNAMGWYRQAPGKEREFVAGITTSGGSTYYADSVKGRFTISRDNAKNTVYLQMNSLKPEDTAVYYCNIVWVYAVTPSSWYKYGSWGQGTQVTVSS	low polyreactivity
QVQLVESGGGLVQAGGSLRLSCAASGSTFAYNAMGWYRQAPGKERELVASITVSVGSTYYADSVKGRYTISRDNAKNTVYLQMNRLKPVDTAVYYCAARVTLRSSTYWVPRTGYYYWGQGTQVTVSS	low polyreactivity
QVQLVESGGGLVQAGGSLRLSCAASGFIFADNAMGWYRQAPGKERELVAAINLGGGDTYYADSVKGRFTISRDNAKNTVYLQMNSLKPEDTAVYYCATVWFSEGYDYNHWGQGTQVTVSS	low polyreactivity
QDQLVESGGGLVQAGVSLRLSCPASGNIFNGKAMGWYRQAPGKERELVAAISSGGGSTYYADSVKGRFTISRDNAMNTVYLQMNSLKPEDTAVYYCAASRVRYSYGYPYYYWGQGTQVTVSS	high polyreactivity
QVQLVESGGGLVQAGGSLRLSCAASGRIFAANTMGWYRQAPGKEREFVAVIRGRGGSTYYADSVKGRFTISRDNAKNTVYLQMNSLKPEDTAVYYCAAYYKPYRERLYGYWGQGTQVTVSS	high polyreactivity
QVQLVESGGGLVQAGGSLRISCAASGSIFQFNAMGWSRQAPGKERELVASISASGGSTYYADSVKGRFTISRDNAKNTVYLQMNSLKPEDTAVYYCAADFIRSWFIWRGSFDYWGLGTQVTVSS	low polyreactivity
QVQLVESGGGLVQAGGSLRLSCAASGYTFRVYTMGWYRQAPGTERELVAAISRRGSRTYYADSVKGRFTISRDNAKNTVYLQMNSLKPEDTAVYYCAAGIPYPDDYWGQGSQVTVSS	high polyreactivity
QVQLVESRGGLVQAGGSLRLSCAASGRTFRSYVMGWYRQAPGKERELVAAITTSGGSTYYADSVKGRFTISRDTAKNTVYLQMNSLKPEETAVYYCAAEYYTYTGHYDSWYGDDYWGQGTQVTVSS	high polyreactivity
